From patent US11945858B2, “Antibodies and antibody fragments against HNAV1.7 channel and their use in pain and cancer indications” (NATIONAL RESEARCH COUNCIL OF CANADA, priority 2018, dated 2024)
Entries after “also recorded” stand apart in the source; their conditions may differ.

Tests used:
[1] = target: T1, FC5DIE3IR (Homo sapiens, UniProt Q15858); assay: Evaluation of apparent affinity of purified mAbs in ELISA; type: binding; conditions: purified mAb, OD 405 nm
T1 construct: The supernatant was collected and loaded on a 5 ml MabSelect™ SuRe™ column; made in house; host or cells: CHO-3E7 (transient, pTT5 vector), purified from supernatant
Protocol: Screening. Hybridoma supernatants were screened by ELISA to detect specific binders. To this end, 96-well half-area plates (Costar #3690) were coated with 25 μl of FC5DIE3IR or FC5-VHH or FC5-hFc-1X0 at 5 μg/ml in PBS and incubated overnight at 4° C. Microplates were washed 3 times with PBS, blocked with PBS-BSA 1%, and 25 μl of hybridoma supernatants were added and incubated at 37° C., 5% CO2 for 2 hours. Plates were washed 4 times with PBS-Tween 20 0.05% and incubated for one hour at 37° C., 5% CO2 with 25 μl of secondary antibody alkaline phosphatase conjugated F(ab′)2 goat anti-mouse IgG Fc-gamma specific (Jackson Immunoresearch #115-056-071) diluted 1/3000 in blocking buffer. After 4 washes with PBS-Tween 20 0.05%, 25 μl of a 1 mg/ml pNPP substrate solution was added and further incubated for one hour at 37° C. OD405 nm measurements were done using a microplate reader (Spectramax 340 PC, Molecular Devices).
Evaluation of apparent affinity in ELISA. Purified antibodies were assessed for their binding activity by ELISA in a dose-dependent binding curve. […] The data were analyzed with GraphPad Prism software using one-site specific binding-with Hill slope non-linear regression curve fit model to determine Bmax (maximum specific binding) and Kdapp (concentration needed to achieve a half-maximum binding at equilibrium) for each mAb tested. […]

[2] = system: OD1-evoked Nav1.7-mediated spontaneous pain behaviours; type: in vivo, mouse; conditions: 100 μg, injected 60 minutes prior to OD1; 20 min after the injection
[3] = system: VHH FC5; assay: Surface Plasmon Resonance of mAbs, FC5 control; type: binding; conditions: SPR; 25 °C
Sequence of VHH FC5 (as listed by the source): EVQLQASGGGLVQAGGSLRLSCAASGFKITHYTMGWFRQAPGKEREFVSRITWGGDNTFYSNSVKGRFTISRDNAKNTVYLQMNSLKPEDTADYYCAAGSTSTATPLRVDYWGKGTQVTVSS
Protocol: Surface Plasmon Resonance of mAbs. FC5 and FC5DIE3IR proteins were SEC purified using a Superdex 75 column (GE Healthcare) connected to an AKTAPurifier (GE Healthcare) in HBS-EP+ running buffer (10 mM HEPES, pH 7.4, containing 150 mM NaCl, 3 mM EDTA and 0.05% P20) at a flow rate of 1 ml/min. Monomeric eluted peaks were used to flow over Fc-capture 3A8 mAb surfaces. To prepare the 3A8 mAb surfaces, approximately 6000 RUs of anti-mouse IgG (GE Healthcare) was first immobilized on CM5 Series S sensor chips (GE Healthcare) at pH 5.0, using standard amine coupling methods previously reported (Hussack et al., 2011) and according to the manufacturer's instructions (GE Healthcare). HBS-EP running buffer used for SPR experiments. The mAb 3A8 was captured on the anti-mouse IgG surface using 10 μg/ml of mAb, 30 sec contact time and flow rate of 10 μl/min. IMAC-purified DI-D VHH was passed through a Superdex 75 (GE Healthcare) column for SEC purification in HBS-EP buffer (10 mM HEPES, pH 7.4, containing 150 mM NaCl, 3 mM EDTA and 0.005% P20), connected to an AKTAPurifier (GE Healthcare) at a flow rate of 1 ml/min. Test binding experiments of FC5 control and FC5DIE3IR involved flowing 1 μM concentrations of SEC-pure material over the mAb surface at a flow rate of 30 μl/min for 5 min. Surfaces could be regenerated using 10 mM glycine, pH 1.7, with a 120 sec pulse at 20 μl/min. All SPR experiments were evaluated with Biacore T200 Software v 3.0. For kinetic analysis, single cycle kinetic analysis was used by flowing a range of FC5DIE3IR concentrations (320 nM-20 nM) at a flow rate of 30 μl/min, with 600 sec contact time and 1200 sec dissociation. Regeneration conditions were the same as above. Data were fit to a 1:1 binding model and analyzed using the Biacore T200 Software v3.0.
Surfaces were regenerated by washing with running buffer (HBS-EP). Data were analyzed with BIAevaluation 4.1 software as described (Hussack et al., 2011) and affinities determined using the steady state binding model.
Surface Plasmon Resonance (SPR) for monoclonal antibodies.

[4] = system: overlapping antigen-peptides derived from DIE3IR; assay: ELISA of mAbs on overlapping antigen-peptides derived from DIE3IR; type: binding, human; conditions: peptides coated 100-500 ng/well
Protocol: The peptides were custom-synthesized (Biomatik) and tested for antibody binding by ELISA. […] The wells were blocked with 1% BSA in TBS-T for 30 min and then incubated with 1:1000 dilution of anti-hNav1.7 mAb at room temperature (RT) for one hr. Following three TBS-T washes (3×5 min), mAb binding to peptides was detected by incubating with HRP-conjugated anti-mouse Fc antibody for 90 min at RT in TBS-T. The bound antibody was detected with SureBlue™ TMB reagent kit (KPL) by colorimetric measurement at 450 nm according to manufacturer's instructions.
To identify the epitope for mAb 3A8 on DIE3IR, seven overlapping antigen-peptides were generated (FIG. 15A) and an ELISA was performed to determine the binding between these peptides and the various mAb (FIGS. 15C to 15I).

[5] = target: T1, FC5DIE3IR; assay: Hydrogen-Deuterium Exchange Mass Spectrometry (HDX-MS); type: binding; conditions: labelling 1, 10 and 60 min

B1: 3A8: anti-hNav1.7 mouse monoclonal antibody, IgG2a, k; heavy chain SEQ ID NO: 12, light chain SEQ ID NO: 18 (antibody, V domains shown)
VH: QVQLQQPGAELVKPGASVKLSCKASGYTFTNYWMHWVKQRPGQGLEWIGEINPSNGRANYNEKFKSKATLTVDKSSSTAYMQLSSLTSEDSAVYYCARSPYGYYDYWGQGTTLTVSSAKTTAPSVYPLAP
VL: DVLMTQTPLSLPVSLGDQASISCRSSQSLLHSNGNTYFHWYLQKPGQSPKLLIYKVSNRFFGVPDRFSGSGSGTDFTLKISRVEAEDLGVYFCSQITHVPLTFGAGTKLELKRADAAPTVSIFPPSS
modifications: Heavy chain of the 3A8 antibody without leader sequence; Light chain of the 3A8 antibody without leader sequence
Bmax (maximum specific binding) [1]: 3.2
Time spent in pain behaviors (saline plus OD1 = 100%) [2]: 73.76%±5.38
Binding to FC5 control (comment, in words) [3]: did not bind FC5; also recorded: No binding
Peptide in which the binding motif resides / that is bound [4]: pep #2a
Stabilization of FC5DIE3IR in response to mAb binding (residues, differential HDX-MS) [5]: Asn121-Tyr134
